The values below come from paper PMC9482650, “Quantitative fragmentomics allow affinity mapping of interactomes” (Nature Communications, 2022).

Among the targets are GRASP, Q7Z6J2; SCRIB_3, Q14160; DLG5_1, Q8TDM6; PICK1, Q9NRD5; Inadl_6, Q8NI35; GRID2IP_2, A4D2P6; LAP2, Q96RT1; AHNAK1, Q09666; SNX27, Q96L92; FRMPD2_1, Q68DX3; FRMPD2_2, Q68DX3; MAGI1_2, Q96QZ7; LNX1_2, Q8TBB1.
Holding throughout (assay): holdup assay
Design in all cases: key: below the threshold = too weak to quantify, mostly under pKd 3.1 to 4
Conditions in all cases: plain residues with an end cap or a label only (N-terminal biotin on a linker: ado-ado)

In the next test the target is T1, GRIP1_4, Q9Y3R0.
T1 sequence (Q9Y3R0 467-571, limits assumed, looked up): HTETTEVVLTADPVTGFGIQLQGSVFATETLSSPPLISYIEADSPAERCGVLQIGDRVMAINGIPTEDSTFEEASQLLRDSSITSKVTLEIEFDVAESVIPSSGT

Another test concerns the target T2, PDZD2_2, O15018.
T2 sequence (O15018 329-429, limits assumed, looked up): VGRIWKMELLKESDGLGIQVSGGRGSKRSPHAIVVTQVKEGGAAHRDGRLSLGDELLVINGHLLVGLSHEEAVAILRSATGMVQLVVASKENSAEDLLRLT

The target of the next test is T3, SNTB1, Q13884.
T3 sequence (Q13884 107-205, limits assumed, looked up): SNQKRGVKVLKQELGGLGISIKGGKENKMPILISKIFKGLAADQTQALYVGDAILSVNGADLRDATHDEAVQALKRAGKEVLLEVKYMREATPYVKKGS

The target in a further test is T4, MPDZ_10, O75970.
T4 sequence (O75970 1624-1722, limits assumed, looked up): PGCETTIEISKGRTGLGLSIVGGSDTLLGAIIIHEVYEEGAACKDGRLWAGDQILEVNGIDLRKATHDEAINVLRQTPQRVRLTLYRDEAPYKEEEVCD

The next test has as its target T5, MPDZ_5, O75970.
T5 sequence (O75970 695-796, limits assumed, looked up): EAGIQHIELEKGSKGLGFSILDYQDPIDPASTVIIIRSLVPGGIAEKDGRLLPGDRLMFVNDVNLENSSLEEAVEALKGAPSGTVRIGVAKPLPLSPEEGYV

The target of a further test is T6, LIN7C, Q9NUP9.
T6 sequence (Q9NUP9 88-185, limits assumed, looked up): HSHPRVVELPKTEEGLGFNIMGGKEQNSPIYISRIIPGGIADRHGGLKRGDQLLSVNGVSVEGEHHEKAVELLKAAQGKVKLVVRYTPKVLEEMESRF

In another test the target is T7, DLG3_1, Q92796.
T7 sequence (Q92796 125-227, limits assumed, looked up): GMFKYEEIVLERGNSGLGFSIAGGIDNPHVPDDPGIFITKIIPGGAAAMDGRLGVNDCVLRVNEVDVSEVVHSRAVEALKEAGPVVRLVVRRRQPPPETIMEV

In another test the target is T8, TIAM2, Q8IVF5.
T8 sequence (Q8IVF5 885-986, limits assumed, looked up): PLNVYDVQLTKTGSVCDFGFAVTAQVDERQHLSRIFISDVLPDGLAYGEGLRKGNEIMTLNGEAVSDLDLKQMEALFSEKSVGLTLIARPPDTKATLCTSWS

A further test concerns the target T9, LIN7B, Q9HAP6.
T9 sequence (Q9HAP6 88-185, limits assumed, looked up): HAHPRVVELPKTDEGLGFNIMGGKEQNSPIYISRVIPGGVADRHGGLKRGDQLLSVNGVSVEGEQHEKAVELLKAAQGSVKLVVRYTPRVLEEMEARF

A further test concerns the target T10, TX1BP3, O14907.
T10 sequence (O14907 10-122, limits assumed, looked up): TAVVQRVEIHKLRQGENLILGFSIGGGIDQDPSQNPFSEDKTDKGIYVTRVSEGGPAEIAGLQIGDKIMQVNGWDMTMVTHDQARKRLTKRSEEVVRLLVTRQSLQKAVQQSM

The target of the next test is T11, MPP6, Q9NZW5.
T11 sequence (Q9NZW5 125-219, limits assumed, looked up): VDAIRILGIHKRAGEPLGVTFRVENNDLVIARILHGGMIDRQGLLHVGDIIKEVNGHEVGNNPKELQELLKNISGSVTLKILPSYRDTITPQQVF

A further test deals with T12, ARHGAP21, Q5T5U3.
T12 sequence (Q5T5U3 45-169, limits assumed, looked up): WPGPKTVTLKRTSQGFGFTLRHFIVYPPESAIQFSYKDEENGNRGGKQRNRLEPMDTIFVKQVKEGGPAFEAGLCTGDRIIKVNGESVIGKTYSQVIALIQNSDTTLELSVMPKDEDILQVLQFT

LAP2, Q96RT1, sequence (Q96RT1 other isoform, or with tags, fused parts or gaps): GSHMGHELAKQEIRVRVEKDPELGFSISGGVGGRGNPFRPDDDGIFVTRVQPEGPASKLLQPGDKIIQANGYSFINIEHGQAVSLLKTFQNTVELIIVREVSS
FRMPD2_2, Q68DX3, sequence (Q68DX3 944-1038): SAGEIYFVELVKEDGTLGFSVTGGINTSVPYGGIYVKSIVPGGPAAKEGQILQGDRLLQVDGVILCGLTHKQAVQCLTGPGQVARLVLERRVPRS
LNX1_2, Q8TBB1, sequence (Q8TBB1 371-470): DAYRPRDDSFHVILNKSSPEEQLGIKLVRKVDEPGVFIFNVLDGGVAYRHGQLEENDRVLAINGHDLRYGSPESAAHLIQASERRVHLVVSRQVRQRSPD
GRID2IP_2, A4D2P6, sequence (A4D2P6 272-370): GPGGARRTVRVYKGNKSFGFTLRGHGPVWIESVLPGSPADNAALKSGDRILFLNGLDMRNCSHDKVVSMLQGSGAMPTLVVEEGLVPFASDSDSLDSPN
MAGI1_2, Q96QZ7, sequence (Q96QZ7 456-580): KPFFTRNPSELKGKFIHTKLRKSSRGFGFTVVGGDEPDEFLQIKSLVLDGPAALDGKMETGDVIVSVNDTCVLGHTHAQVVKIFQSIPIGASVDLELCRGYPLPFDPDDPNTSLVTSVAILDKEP
FRMPD2_1, Q68DX3, sequence (Q68DX3 770-861): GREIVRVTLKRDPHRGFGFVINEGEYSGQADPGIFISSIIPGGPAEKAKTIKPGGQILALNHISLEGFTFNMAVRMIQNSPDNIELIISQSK
Inadl_6, Q8NI35, sequence (Q8NI35 1058-1167): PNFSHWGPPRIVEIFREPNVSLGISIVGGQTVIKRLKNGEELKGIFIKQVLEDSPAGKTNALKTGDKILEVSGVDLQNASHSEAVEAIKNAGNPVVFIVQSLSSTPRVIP
DLG5_1, Q8TDM6, sequence (Q8TDM6 617-713): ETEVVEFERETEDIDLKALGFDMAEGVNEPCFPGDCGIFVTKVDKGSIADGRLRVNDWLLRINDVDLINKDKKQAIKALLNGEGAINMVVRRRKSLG
SCRIB_3, Q14160, sequence (Q14160 999-1103): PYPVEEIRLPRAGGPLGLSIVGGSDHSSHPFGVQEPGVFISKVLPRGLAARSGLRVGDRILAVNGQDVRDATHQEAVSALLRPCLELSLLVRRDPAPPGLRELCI
GRASP, Q7Z6J2, sequence (Q7Z6J2 96-193): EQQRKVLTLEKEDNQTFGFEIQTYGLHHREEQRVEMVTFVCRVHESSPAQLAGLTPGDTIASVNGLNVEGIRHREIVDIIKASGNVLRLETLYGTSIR
PICK1, Q9NRD5, sequence (Q9NRD5 17-115): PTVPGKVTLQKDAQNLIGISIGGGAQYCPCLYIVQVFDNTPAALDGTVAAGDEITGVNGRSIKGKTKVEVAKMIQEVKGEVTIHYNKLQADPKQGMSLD

VYPNAKVELV [PDLIM4_iso2, P50479;P50479-1]: the pKd (commonly −log10 of the Kd, conventionally taken in molar units) is “below the threshold” with GRASP, Q7Z6J2; “below the threshold” in the test with SCRIB_3, Q14160; “below the threshold” with DLG5_1, Q8TDM6; 4.26 in the test with PICK1, Q9NRD5; “below the threshold” with Inadl_6, Q8NI35; “below the threshold” in the test with GRIP1_4, Q9Y3R0. For the same molecule, the pKd result with PDZD2_2, O15018 is listed as “below the threshold”; with SNTB1, Q13884 it was “below the threshold”; in the test with MPDZ_10, O75970 it was “below the threshold”; with GRID2IP_2, A4D2P6 it was “below the threshold”; in the test with MPDZ_5, O75970, “below the threshold”; in the test with LIN7C, Q9NUP9 it was “below the threshold”. Besides, the pKd entry in the test with LAP2, Q96RT1 is given as “below the threshold”; with AHNAK1, Q09666, “below the threshold”; in the test with SNX27, Q96L92 it was “below the threshold”; with DLG3_1, Q92796 it was “below the threshold”; in the test with TIAM2, Q8IVF5 it was “below the threshold”; in the test with LIN7B, Q9HAP6 it was “below the threshold”. Further, the pKd entry is listed as “below the threshold” with FRMPD2_1, Q68DX3; “below the threshold” with FRMPD2_2, Q68DX3; “below the threshold” with MAGI1_2, Q96QZ7; “below the threshold” in the test with TX1BP3, O14907; “below the threshold” in the test with MPP6, Q9NZW5.
KSGKQTMLVV [TRIM29, Q14134;Q14134-2]: the pKd entry was “below the threshold” with GRASP, Q7Z6J2; “below the threshold” with SCRIB_3, Q14160; 3.93 in the test with DLG5_1, Q8TDM6; “below the threshold” with PICK1, Q9NRD5; “below the threshold” with Inadl_6, Q8NI35; “below the threshold” in the test with GRIP1_4, Q9Y3R0. Further, the pKd entry with PDZD2_2, O15018 was “below the threshold”; with SNTB1, Q13884 it was “below the threshold”; with GRID2IP_2, A4D2P6, “below the threshold”; in the test with MPDZ_5, O75970, “below the threshold”; in the test with ARHGAP21, Q5T5U3, 4.14; in the test with LIN7C, Q9NUP9, “below the threshold”. Moreover, the pKd entry with LAP2, Q96RT1 is “below the threshold”; in the test with AHNAK1, Q09666, “below the threshold”; with LIN7B, Q9HAP6, “below the threshold”; with FRMPD2_2, Q68DX3 it was “below the threshold”; with MAGI1_2, Q96QZ7, “below the threshold”; with LNX1_2, Q8TBB1 it was 4.23. For the same molecule, in the test with MPP6, Q9NZW5, the pKd result was “below the threshold”.
In the case of YLEPVLSSEL [ATP2A2, P16615;P16615-3], the pKd in the test with GRASP, Q7Z6J2 was 4.82; with SCRIB_3, Q14160, 4.51; in the test with DLG5_1, Q8TDM6, “below the threshold”; in the test with PICK1, Q9NRD5, “below the threshold”; with Inadl_6, Q8NI35, “below the threshold”; in the test with GRIP1_4, Q9Y3R0, “below the threshold”. The pKd was 4.41 with PDZD2_2, O15018; “below the threshold” in the test with SNTB1, Q13884; “below the threshold” with MPDZ_10, O75970; 4.22 with GRID2IP_2, A4D2P6; “below the threshold” with MPDZ_5, O75970; “below the threshold” with ARHGAP21, Q5T5U3. The pKd entry with AHNAK1, Q09666 was “below the threshold”; in the test with SNX27, Q96L92, 4.12; with DLG3_1, Q92796 it was “below the threshold”; with TIAM2, Q8IVF5, 3.98; with FRMPD2_1, Q68DX3, “below the threshold”; in the test with FRMPD2_2, Q68DX3 it was “below the threshold”. Besides, the pKd entry with MAGI1_2, Q96QZ7 is “below the threshold”; in the test with LNX1_2, Q8TBB1 it was “below the threshold”; in the test with TX1BP3, O14907, 3.94; with MPP6, Q9NZW5, “below the threshold”.
For LPAHHNATRL [SLC34A1, Q06495;Q06495-1], the pKd was 4.26 in the test with GRASP, Q7Z6J2; 4.02 with SCRIB_3, Q14160; “below the threshold” in the test with DLG5_1, Q8TDM6; 4.19 with PICK1, Q9NRD5; “below the threshold” with Inadl_6, Q8NI35; “below the threshold” with GRIP1_4, Q9Y3R0. The pKd entry with PDZD2_2, O15018 was “below the threshold”; with SNTB1, Q13884, “below the threshold”; in the test with MPDZ_10, O75970 it was “below the threshold”; in the test with GRID2IP_2, A4D2P6, 4.13; with MPDZ_5, O75970, “below the threshold”; in the test with ARHGAP21, Q5T5U3, 3.99. Further, the pKd result with LIN7C, Q9NUP9 is “below the threshold”; with LAP2, Q96RT1, “below the threshold”; with AHNAK1, Q09666, “below the threshold”; in the test with SNX27, Q96L92 it was 4.19; with DLG3_1, Q92796, “below the threshold”; with TIAM2, Q8IVF5 it was “below the threshold”. Further, the pKd entry is recorded as “below the threshold” with LIN7B, Q9HAP6; “below the threshold” with FRMPD2_1, Q68DX3; “below the threshold” with FRMPD2_2, Q68DX3; “below the threshold” with LNX1_2, Q8TBB1; “below the threshold” with TX1BP3, O14907; “below the threshold” with MPP6, Q9NZW5.
